The values below are quoted from earlier work in PMC7510350.

By Kd is commonly meant the free concentration of one partner at which half of the binding sites on the other are occupied at equilibrium, for simple one-to-one binding.

The target of one series is IscA (Escherichia coli) (UniProt P0AAC8).
Another series deals with SufA (Escherichia coli) (UniProt P77667).
UniProt P77667, sequence (P77667 whole entry): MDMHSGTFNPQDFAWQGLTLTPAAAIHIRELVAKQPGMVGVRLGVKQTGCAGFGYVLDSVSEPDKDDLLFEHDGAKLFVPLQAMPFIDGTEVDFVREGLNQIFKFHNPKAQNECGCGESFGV

UniProt P0AAC8, sequence (P0AAC8 whole entry): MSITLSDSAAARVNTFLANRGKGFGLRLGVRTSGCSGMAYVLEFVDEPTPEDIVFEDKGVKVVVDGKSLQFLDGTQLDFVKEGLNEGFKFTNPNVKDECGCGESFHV

With ErpA (from UniProt P0ACC3), the dissociation constant (Kd) with IscA (Escherichia coli) is 40 µM; with SufA (Escherichia coli), 902 µM.
